From patent US12679878B2, “CRF2 receptor agonists and their use in therapy” (SANOFI, priority 2020, dated 2026)
Starred links: 1 amine or outer side, 2 acyl side, 3 side chain; linkers in the order of their positions; H or OH if unused. Non-standard residues stand in square brackets, D forms with d. Groups on a side chain read outwards from the residue. No end group written: not given here. *: point of attachment. C18 diacid = O=C(O)CCCCCCCCCCCCCCCCC(=O)*; γGlu = O=C(O)[C@H](CCC(=O)[*:2])N[*:1]; AEEA = NCCOCCOCC(=O)O; Aib = CC(C)(N)C(=O)O

T1: CRF1R receptor (anti-target) (UniProt P34998 24-415, limits assumed)
T1 sequence (looked up): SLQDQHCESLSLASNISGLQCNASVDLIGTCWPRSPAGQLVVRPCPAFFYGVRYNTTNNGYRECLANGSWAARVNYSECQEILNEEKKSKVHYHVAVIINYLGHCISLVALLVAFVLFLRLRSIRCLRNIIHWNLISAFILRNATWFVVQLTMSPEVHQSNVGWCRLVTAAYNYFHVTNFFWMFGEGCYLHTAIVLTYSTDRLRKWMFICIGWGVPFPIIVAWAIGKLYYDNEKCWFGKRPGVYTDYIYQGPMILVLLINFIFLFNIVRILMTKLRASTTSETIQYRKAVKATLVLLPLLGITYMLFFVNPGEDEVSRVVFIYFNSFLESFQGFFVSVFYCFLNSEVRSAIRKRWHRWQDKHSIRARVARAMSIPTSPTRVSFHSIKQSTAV


What follows are binders tested against T1, CRF1R receptor (anti-target) (assay: cell-based or functional assay).

Binder | EC50 [nM] 0% HSA (cAMP, HTRF) [nM] | Emax (%) (100% = Sauvagine at 100 nM)
IVLSLDVPIKLK([AEEA-AEEA-γGlu-C18 diacid])QILLEQERQK[Aib]QREQAETNKQILAQV-NH2 (N-terminus assumed; SMILES CC[C@H](C)[C@H](N)C(=O)N[C@H](C(=O)N[C@@H](CC(C)C)C(=O)N[C@@H](CO)C(=O)N[C@@H](CC(C)C)C(=O)N[C@@H](CC(=O)O)C(=O)N[C@H](C(=O)N1CCC[C@H]1C(=O)N[C@H](C(=O)N[C@@H](CCCCN)C(=O)N[C@@H](CC(C)C)C(=O)N[C@@H](CCCCNC(=O)COCCOCCNC(=O)COCCOCCNC(=O)CC[C@H](NC(=O)CCCCCCCCCCCCCCCCC(=O)O)C(=O)O)C(=O)N[C@@H](CCC(N)=O)C(=O)N[C@H](C(=O)N[C@@H](CC(C)C)C(=O)N[C@@H](CC(C)C)C(=O)N[C@@H](CCC(=O)O)C(=O)N[C@@H](CCC(N)=O)C(=O)N[C@@H](CCC(=O)O)C(=O)N[C@@H](CCCNC(=N)N)C(=O)N[C@@H](CCC(N)=O)C(=O)N[C@@H](CCCCN)C(=O)NC(C)(C)C(=O)N[C@@H](CCC(N)=O)C(=O)N[C@@H](CCCNC(=N)N)C(=O)N[C@@H](CCC(=O)O)C(=O)N[C@@H](CCC(N)=O)C(=O)N[C@@H](C)C(=O)N[C@@H](CCC(=O)O)C(=O)N[C@H](C(=O)N[C@@H](CC(N)=O)C(=O)N[C@@H](CCCCN)C(=O)N[C@@H](CCC(N)=O)C(=O)N[C@H](C(=O)N[C@@H](CC(C)C)C(=O)N[C@@H](C)C(=O)N[C@@H](CCC(N)=O)C(=O)N[C@H](C(N)=O)C(C)C)[C@@H](C)CC)[C@@H](C)O)[C@@H](C)CC)[C@@H](C)CC)C(C)C)C(C)C) [peptide of SEQ ID NO: 103] | > 100 | 14
IVLSLDVPIKLK([AEEA-AEEA-γGlu-C18 diacid])QILLKQERQK[Aib]QREQAETNKQILAQV-NH2 (N-terminus assumed; SMILES CC[C@H](C)[C@H](N)C(=O)N[C@H](C(=O)N[C@@H](CC(C)C)C(=O)N[C@@H](CO)C(=O)N[C@@H](CC(C)C)C(=O)N[C@@H](CC(=O)O)C(=O)N[C@H](C(=O)N1CCC[C@H]1C(=O)N[C@H](C(=O)N[C@@H](CCCCN)C(=O)N[C@@H](CC(C)C)C(=O)N[C@@H](CCCCNC(=O)COCCOCCNC(=O)COCCOCCNC(=O)CC[C@H](NC(=O)CCCCCCCCCCCCCCCCC(=O)O)C(=O)O)C(=O)N[C@@H](CCC(N)=O)C(=O)N[C@H](C(=O)N[C@@H](CC(C)C)C(=O)N[C@@H](CC(C)C)C(=O)N[C@@H](CCCCN)C(=O)N[C@@H](CCC(N)=O)C(=O)N[C@@H](CCC(=O)O)C(=O)N[C@@H](CCCNC(=N)N)C(=O)N[C@@H](CCC(N)=O)C(=O)N[C@@H](CCCCN)C(=O)NC(C)(C)C(=O)N[C@@H](CCC(N)=O)C(=O)N[C@@H](CCCNC(=N)N)C(=O)N[C@@H](CCC(=O)O)C(=O)N[C@@H](CCC(N)=O)C(=O)N[C@@H](C)C(=O)N[C@@H](CCC(=O)O)C(=O)N[C@H](C(=O)N[C@@H](CC(N)=O)C(=O)N[C@@H](CCCCN)C(=O)N[C@@H](CCC(N)=O)C(=O)N[C@H](C(=O)N[C@@H](CC(C)C)C(=O)N[C@@H](C)C(=O)N[C@@H](CCC(N)=O)C(=O)N[C@H](C(N)=O)C(C)C)[C@@H](C)CC)[C@@H](C)O)[C@@H](C)CC)[C@@H](C)CC)C(C)C)C(C)C) [peptide of SEQ ID NO: 104] | > 100 | 3.7
IVLSLDVPIKLK([AEEA-AEEA-γGlu-C18 diacid])QILLEQERQK[Aib]QRQQAETNKQILAQV-NH2 (N-terminus assumed; SMILES CC[C@H](C)[C@H](N)C(=O)N[C@H](C(=O)N[C@@H](CC(C)C)C(=O)N[C@@H](CO)C(=O)N[C@@H](CC(C)C)C(=O)N[C@@H](CC(=O)O)C(=O)N[C@H](C(=O)N1CCC[C@H]1C(=O)N[C@H](C(=O)N[C@@H](CCCCN)C(=O)N[C@@H](CC(C)C)C(=O)N[C@@H](CCCCNC(=O)COCCOCCNC(=O)COCCOCCNC(=O)CC[C@H](NC(=O)CCCCCCCCCCCCCCCCC(=O)O)C(=O)O)C(=O)N[C@@H](CCC(N)=O)C(=O)N[C@H](C(=O)N[C@@H](CC(C)C)C(=O)N[C@@H](CC(C)C)C(=O)N[C@@H](CCC(=O)O)C(=O)N[C@@H](CCC(N)=O)C(=O)N[C@@H](CCC(=O)O)C(=O)N[C@@H](CCCNC(=N)N)C(=O)N[C@@H](CCC(N)=O)C(=O)N[C@@H](CCCCN)C(=O)NC(C)(C)C(=O)N[C@@H](CCC(N)=O)C(=O)N[C@@H](CCCNC(=N)N)C(=O)N[C@@H](CCC(N)=O)C(=O)N[C@@H](CCC(N)=O)C(=O)N[C@@H](C)C(=O)N[C@@H](CCC(=O)O)C(=O)N[C@H](C(=O)N[C@@H](CC(N)=O)C(=O)N[C@@H](CCCCN)C(=O)N[C@@H](CCC(N)=O)C(=O)N[C@H](C(=O)N[C@@H](CC(C)C)C(=O)N[C@@H](C)C(=O)N[C@@H](CCC(N)=O)C(=O)N[C@H](C(N)=O)C(C)C)[C@@H](C)CC)[C@@H](C)O)[C@@H](C)CC)[C@@H](C)CC)C(C)C)C(C)C) [peptide of SEQ ID NO: 105] | > 100 | 15.4
IVLSLDVPIKLK([AEEA-AEEA-γGlu-C18 diacid])QILLEQERQK[Aib]QREQAETNKQILERV-NH2 (N-terminus assumed; SMILES CC[C@H](C)[C@H](N)C(=O)N[C@H](C(=O)N[C@@H](CC(C)C)C(=O)N[C@@H](CO)C(=O)N[C@@H](CC(C)C)C(=O)N[C@@H](CC(=O)O)C(=O)N[C@H](C(=O)N1CCC[C@H]1C(=O)N[C@H](C(=O)N[C@@H](CCCCN)C(=O)N[C@@H](CC(C)C)C(=O)N[C@@H](CCCCNC(=O)COCCOCCNC(=O)COCCOCCNC(=O)CC[C@H](NC(=O)CCCCCCCCCCCCCCCCC(=O)O)C(=O)O)C(=O)N[C@@H](CCC(N)=O)C(=O)N[C@H](C(=O)N[C@@H](CC(C)C)C(=O)N[C@@H](CC(C)C)C(=O)N[C@@H](CCC(=O)O)C(=O)N[C@@H](CCC(N)=O)C(=O)N[C@@H](CCC(=O)O)C(=O)N[C@@H](CCCNC(=N)N)C(=O)N[C@@H](CCC(N)=O)C(=O)N[C@@H](CCCCN)C(=O)NC(C)(C)C(=O)N[C@@H](CCC(N)=O)C(=O)N[C@@H](CCCNC(=N)N)C(=O)N[C@@H](CCC(=O)O)C(=O)N[C@@H](CCC(N)=O)C(=O)N[C@@H](C)C(=O)N[C@@H](CCC(=O)O)C(=O)N[C@H](C(=O)N[C@@H](CC(N)=O)C(=O)N[C@@H](CCCCN)C(=O)N[C@@H](CCC(N)=O)C(=O)N[C@H](C(=O)N[C@@H](CC(C)C)C(=O)N[C@@H](CCC(=O)O)C(=O)N[C@@H](CCCNC(=N)N)C(=O)N[C@H](C(N)=O)C(C)C)[C@@H](C)CC)[C@@H](C)O)[C@@H](C)CC)[C@@H](C)CC)C(C)C)C(C)C) [peptide of SEQ ID NO: 106] | > 100 | 5.1
